experiment: yeast display, Sf9 membrane polyspecificity reagent, FACS + sequencing; frameworks hold sequencing errors
Method in brief: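 A synthetic nanobody library was expressed on Saccharomyces cerevisiae BJ5465 by galactose induction for 36–48 hours. The library was stained for 1 hour at 4 °C with 10% biotinylated, detergent-solubilized Sf9 membrane reagent and enriched with streptavidin microbeads before FACS. Low and high (top ~1%) gates were set on anti-HA fluorescence for expression and streptavidin fluorescence for reagent binding, and each polyreactivity label reflects the gate of origin.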

Sequence	polyreactivity (PSR sort gate)
QVQLVESGGGLVQAGGSLRLSCAASGSIFGSNTMGWYRQAPGKEREFVAAISFSGGSTYDADSVKGRFTISRDNAKNTVYLQMNSLKPEDTAVYYCAARQRRVGTSFYSSRRDYWGQGTQVTVSS	high polyreactivity
QVQLVESGGGLVQAGGSLRLSCAASGSIFGSYAMGWYRQAPGKERELVAAITSAGSTNYADSVKGRFTISRDNAKNTVYLQMNSLKPEDTAVYYCAVRPGFGRSLWYGYWGQGTQVTVSS	low polyreactivity
QVQLVESGGGLVQAGGSLRLSCAASGSIFGSYAMGWYRQAPGKERELVAAITSGGSTYADSVKGPFTISRDNPNKTVYLQMNSQKPDDTAVYYSNAKFYHSTSTLVQSEYDYWGQGTQVSVSS	low polyreactivity
QVQLVESGGGLVQAGGSLRLSCAASGSIFGSYTMGWYRQAPGKEREFVAAINFSGGRTYYADSVKGRFTISRDNAKNTVYLQMNSLKPEDTAVYYCARRWRQARYDYWGQGTQVTVSS	high polyreactivity
QVQLVESGGGLVQAGGSLRLSCAASGSIFGTNAMGRYRPAPGKERELVAAISWSGTSTYYADSVKGRFTISRDNAKNTVYLQMNSLKPEDTAVYYCAKRSGYSRGFYYWGQGTQVTVSS	high polyreactivity
QVQLVESGGGLVQAGGSLRLSCAASGSIFGTNAMGWYRQAPGKEREMVAAISLSTGSTYYADSVKGRFTISRDKAKNTVYLQMNSLKPEDTAVYSCAAYYVTPIYYYLGQGTQVTVSS	low polyreactivity
QVQLVESGGGLVQAGGSLRLSCAASGSIFGTNTMGWYRQAAGKERVLVAAIRLSDSSTYYADSVKGRFTISRDNAKKTVYLQMNSLKPGDTAVYYCAVDYRAYHYYRYDYWGQGTQVTVSS	low polyreactivity
QVQLVESGGGLVQAGGSLRLSCAASGSIFGTNTMGWYRQAPGKERELVAAISGGGSTYYADSVKGRFTISRDNAKNTVYLQMNSLKPEDTAVYYCAVRSLRVDKYGYWGQGTQVTVSS	high polyreactivity
QVQLVESGGGLVQAGGSLRLSCAASGSIFGTYAMGWYRQAPGKERELVARITRGVSTNYADSVQGRFTISRDNAKNTVYLQMNSLKPEDTAVYYCAAESGNRYEYWGQGTQVTVSS	low polyreactivity
QVQLVESGGGLVQAGGSLRLSCAASGSIFGVNAMGWYRQAPGKERELVAAISVSGGRTYYADSVKGRFTISRDNAKNTVYLLMNSLKPEDTAVYYCAATTYIWPYDYWGQGTQVTVSS	low polyreactivity
QVQLVESGGGLVQAGGSLRLSCAASGSIFGVNAMGWYRQAPGKERELVAGITTGGSTKYADSVKGRFTISRDNAKNTVYLQMNSLKPEDTAVYYCAATGKWYHFYHYGYWGQGTQVTVSS	low polyreactivity
QVQLVESGGGLVQAGGSLRLSCAASGSIFGVNAMGWYRQTPGKERELVARINWSSGRTYYADSVKGRFTISRDNAKNTVYLQMNSLKQEDTAVYYCAAAYWRPGVRFFGPYDYWGQGTQVTVSS	high polyreactivity
QVQLVESGGGLVQAGGSLRLSCAASGSIFGVYAMGWYRQAPGKERELVARISSGGGSTYYADSVKGRFTISRDNAKNTVYLQMNSLKPEDTAVYYCATRYYGYYPVNYWGQGTQVTVSS	high polyreactivity
QVQLVESGGGLVQAGGSLRLSCAASGSIFGVYAMRWYRQAPGKERELVATISRSGAITYYADSVKGRFTISRDNAKNTVYLQMNSLKPEDTAVYYCAADFFSRDWGQGTQVTVSS	low polyreactivity
QVQLVESGGGLVQAGGSLRLSCAASGSIFGVYTLGWYRQAPGKERELVAAISGSGGSTSYADSVKGRFTISRDNAKNTVYLQMTSLKPEDTAGYYCATRFPNIPPYDSLGQGTQVTVSS	low polyreactivity
QVQLVESGGGLVQAGGSLRLSCAASGSIFGVYTMGWYRQAPGKERELVAAIRGVGSTNYADSVKGRFTISRDNAKNTVYLQMNSLKPEDTAVYYCASRYAYGMWGQGTQVTVSS	low polyreactivity
QVQLVESGGGLVQAGGSLRLSCAASGSIFGVYTMGWYRQAPWKERELVAAISRNGGSTYYEDSVKGRFTISRDNAKNNVYLQMNSLKPEDTAVYYCATSTSRRYGSRHNYWGQGTQVTVSS	high polyreactivity
QVQLVESGGGLVQAGGSLRLSCAASGSIFGWYAMGWYRQAPGKERELVAAITFSSVSTYYADSVKGRFTISRDNAKNTVYLQMNSLKPEDTAVYYCAAVVYYTFDYWGQGTQVTVSS	low polyreactivity
QVQLVESGGGLVQAGGSLRLSCAASGSIFGWYAMGWYRQAPGTERELVAAIRRGGSTNYADSVKGRFTISRDNAKNTVYLQMNSLKPEDTAVYYCAAGKSGYSKRIFRYSFDYWGQGTQVTVSS	high polyreactivity
QVQLVESGGGLVQAGGSLRLSCAASGSIFGYAMGWYRQAPGKERELVAAISFSGVSTYYADSVKGRFTISRDNAKNTVYLQMNSLKPEDTAVYYCNAYSDGDEDYWGQGTQVTVSS	low polyreactivity
QVQLVESGGGLVQAGGSLRLSCAASGSIFGYNAMGWSRQAPGKERELVAAITGSGGSTYYADSVKGRFTISRDNAKNTVYLLMNILKPEDTAVYYCADDLVGGPLGYWDYDYWGQGTQVTVSS	low polyreactivity

Sequence	polyreactivity (PSR sort gate)
QVQLVESGGGLVQAGGSLRLSCAASGSIFGYNAMGWYRQAPGKERELVAAISNDGDNTYYADSVKGRFTISRDNAKNTVYLQMNSLKPEDTAVYYCATEYPLTYAYYYYDGGDYWGQGTQVTVSS	low polyreactivity
QVQLVESGGGLVQAGGSLRLSCAASGSIFGYNTMGWYRQAPGKERELVATITRGGSTHYADSVKGRFTISRDNAKNTVYLQMNSLKPEDTAVYYCAATRLSYVRLYRFSQQYYYWGQGTQVTVSS	high polyreactivity
QVQLVESGGGLVQAGGSLRLSCAASGSIFGYNVMGWYRQAPGKERELVAGITSGGSTNYADSVKGRFTISRDNAKNTVYLQMNSLKPEDTAVYYCNAEGVFGDGRSGFYWYDYWGQGTQVTVSS	low polyreactivity
QVQLVESGGGLVQAGGSLRLSCAASGSIFGYTTMGWYRQGPGKERELVAAINWSDGHTNYADSVKGRFTISRDNANNTVYLQLNSLKPEDTAVYYCAADWYRSSWTYNYWGQGSQVTVSS	low polyreactivity
QVQLVESGGGLVQAGGSLRLSCAASGSIFGYYAMGWYRQAPGKEREFVAAISSRKDSTYADSVKGRFTISRDNAKNTVYLQMNSLKPEDTAVYYCAASTFRLTYAGHSYDYWGQGTQVTVSS	high polyreactivity
QVQLVESGGGLVQAGGSLRLSCAASGSIFGYYAMGWYRQAPGKERELVAAISGSGGSTYYADSVKGRFTMSRDNAKNTVYLQMNSLKPEDTAVYYCARVRGGYDKMYYWGQGTQVTVSS	high polyreactivity
QVQLVESGGGLVQAGGSLRLSCAASGSIFGYYAMGWYRQAPGKERELVAAISSSGASTYYADSVKGRFTISRDNAKNTVYLQMNSLKPEDTAVYYCNAARRYPTRGGYWGQGTQVTVSS	high polyreactivity
QVQLVESGGGLVQAGGSLRLSCAASGSIFGYYAMGWYRQTPGKERELVAAIRWRGGRTYYADSVKGRFTISRDNAKNTVYLQMNSLKPEDTAVYYCNTRRTGRRSTTPGDYWGQGTQVTVSS	high polyreactivity
QVQLVESGGGLVQAGGSLRLSCAASGSIFGYYSMGCYRQAPGKERELVATITFGGGSTYYADSVKGRFTISRDNAKNTVYLQMNSLKPEDTAVYYCAADSGYLGFYGDEYSWGQGTQVTVSS	low polyreactivity
QVQLVESGGGLVQAGGSLRLSCAASGSIFGYYSMGWYRQAPGKERELVASITSGDSTNYADSVKGRFTISRDNAKNTVYLQMNSLKPEDTAVDYCNTERGYYDEYDYWGQGTQVTVSS	low polyreactivity
QVQLVESGGGLVQAGGSLRLSCAASGSIFGYYTMGWYRQAPGKERELVAAISKNGGSTYYADSVKGRFTISRDNAKNTVYLQMNSLKPEDTAVYYCAAEYTRKGVSGSGYDYWGQGTQVTVSS	low polyreactivity
QVQLVESGGGLVQAGGSLRLSCAASGSIFGYYTMGWYRQAPGKERELVAAISSSGGRTYYADSVKGRFTISRDNAKNTVYLQLNSLKPEDTAVYYCAAVPIKRGLILGDRGYNYWGQGTQVTVSS	high polyreactivity
QVQLVESGGGLVQAGGSLRLSCAASGSIFHDYAMGWYRQAPGKEREMVAAIRWSGGSTYYADSVKGRFTISRDNAKNTVYLQMNSLKREETAVYYCNAVTFGRDNVQLVKFGYWGQGTQVTVSS	low polyreactivity
QVQLVESGGGLVQAGGSLRLSCAASGSIFHFYAMGWYRQAPGKERELVAAITSGTSTYYADSVKGRFTISRDNAKNTVFLQMNSLKPEDTAVYYCAAEASHYYYNAYPSYGGSDYWGQGTQVTVSS	low polyreactivity
QVQLVESGGGLVQAGGSLRLSCAASGSIFHGYAMGWYRQAPGKERELVAAISKSGGRTYYADSVKGRFTISRDNAKNTVYLQMNSLKPEDTAVYYCAAPATYKYDYWGQGTQVTVSS	high polyreactivity
QVQLVESGGGLVQAGGSLRLSCAASGSIFHGYAMGWYRTAPGKERELVAAISYTGGRTYYADSVKGRFTISRDNAMNTVYLQMNSLKPEDTAVYYCAAHDYWGQGTQVTVSS	high polyreactivity
QVQLVESGGGLVQAGGSLRLSCAASGSIFHKNAMGWYIQAPGKERELVARITSSSGSTYYADSVKGRFTISRDNAKNTVYLQMNSLKPEDTAVYYCNASPTTTPNFWRYDYWGQGTQVTVSS	high polyreactivity
QVQLVESGGGLVQAGGSLRLSCAASGSIFHLYAMGWYRQATGKERELVAAISWSGGSTYYADSVKGRFTISRDNAKNTVYLQMNSLKPEDTAVYYCAAEYYYQFYDYPYGYEYWGQGTQVTVSS	high polyreactivity
QVQLVESGGGLVQAGGSLRLSCAASGSIFHPNAMGWYRQAPGKERELVAAITQSGATTYYADSVKGRFTISRDNAKNTVYLQMNSLKPEDTAVYYCAAEFTYGHHDYWGQGTQVTVSS	low polyreactivity
QVQLVESGGGLVQAGGSLRLSCAASGSIFHPYAMGWSRQAPGKERELVASISKRGGSTYYADSVKGRFTISRDNAKNTVYLQMNSLKPEDTAVYYCAKLYTIGYDYWGQGTQVTVSS	low polyreactivity

— the nanobody polyreactivity screen of Harvey et al. (2022)
